Results from the nanobody polyreactivity screen of Harvey et al. (2022).

Test: yeast display, Sf9 membrane polyspecificity reagent, FACS + sequencing; frameworks hold sequencing errors
Method in brief: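 Synthetic nanobody libraries on Saccharomyces cerevisiae BJ5465 were galactose-induced for 36–48 hours, stained 1 hour at 4 °C with 10% biotinylated, detergent-solubilized Sf9 membrane reagent and enriched on streptavidin microbeads. FACS then separated cells into low and high (top ~1%) gates by anti-HA (expression) and streptavidin (reagent binding) fluorescence. Genes were colony-PCR amplified, MiSeq 2 × 250 sequenced and CDR-length filtered. A clone's polyreactivity label is that of its gate of origin.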

Question: With “QVQIVESGGGLVQAGGSIRLSCAASGSIFYDNDMGWYRQAPAKERELVAAISWSASDTYYADSVKGRFTISRDNAKNTVYLQMNSLKPEDTAVYYCNAEVYEWYVVYSALDYWGQGTQVTVSS” as the sequence, how does the “polyreactivity (PSR sort gate)” value read?
Answer: low polyreactivity

Question: With “QVQIVESGGGLVQAGGSLRISCAATGSTFDSFAMGWYRQAPGKERELVDAITRRGTRTYYADSVKGRFTISRDNAKNTVYLQRNSLKPEDTAVYYCNAVTQCSKTPGYGFNYWGQGTQVTVSS” as the sequence, how does the “polyreactivity (PSR sort gate)” value read?
Answer: high polyreactivity

Question: Which “polyreactivity (PSR sort gate)” value does the source give for “QVQIVESGGGLVQAGGSLRISCPASGRTFNYNAMGWYRQAPGKERELVAAITSGASTNYADSVKGRFTISRDNAKNTVFLQINRLKPEDTAVYYCAKATYPHEYDYWGQGTQVNVSS” here?
Answer: low polyreactivity

Question: With “QVQIVESGGGLVQAGGSLRLRCAASGRIFSWNAMGWSRQAPGKERELVPAITWRGTSTYYADSVKGRFTISRDIAKNTVYLQMISLKPEDTAVYFCNVGLYRDWYTFGLEYDYWGQGTQVSVSS” as the sequence, how does the “polyreactivity (PSR sort gate)” value read?
Answer: low polyreactivity

Question: Which “polyreactivity (PSR sort gate)” value does the source give for “QVQIVESGGGLVQAGGSLRLSCAASGFTFGHYAMGWYRQAPGKERELVAAISYSGVRTYYADSVKGRFTISRDNAKNTVYLQMNSLKPEDTAVYYCNKYPAHYQTRRYDYWGHGTQVTVSS” here?
Answer: high polyreactivity

Question: With “QVQIVESGGGLVQAGGSLRLSCAASGFTFRAYAMGWYRQAPGKERELDAAISKSGGRTYYADSVKGRFTISRDNAKNTVYLQMNSLKPEDTAVYYCAKAYRRAFINNPDVYYYPDDYWGQGTQVTVSS” as the sequence, how does the “polyreactivity (PSR sort gate)” value read?
Answer: high polyreactivity

Question: Which “polyreactivity (PSR sort gate)” value does the source give for “QVQIVESGGGLVQAGGSLRLSCAASGGIFAVNAMGWYRQAPGKERELVASITRTGGSTSYEDSVKGRFTISRDNAKNTVYLQMNSLKPEDTAVYYCAAGWQVVLSTNGMDYWGQGTQVTVSS” here?
Answer: high polyreactivity

Question: Which “polyreactivity (PSR sort gate)” value does the source give for “QVQIVESGGGLVQAGGSLRLSCAASGGTFPAYAMGWYRHAPGKERELVAAISDDDSTYYADSVKGRFTISRDNAKNTVYLQKNSLKPEDTAVYYCNVEYWYYPSVEYSWTAYDYWGQGTQVTVSS” here?
Answer: low polyreactivity

Question: Which “polyreactivity (PSR sort gate)” value does the source give for “QVQIVESGGGLVQAGGSLRLSCAASGIIFYYYAMGWYRQAPGKERELVAAITKSGGSTYYADSVKGRFTISRDNAKNTVYLQMNSLKPEDTAVYYCAAEYSYYPLVGLDYWGQGTQVTVSS” here?
Answer: low polyreactivity

Question: With “QVQIVESGGGLVQAGGSLRLSCAASGITFLWNVMGWYRQAPGKERELVATITSIGGITNYADSVKGRFTISRDNAKNSVYLQMNSLKTEDSAFYYCATQIVSGSRVDRNDYWGQGTQVTVSS” as the sequence, how does the “polyreactivity (PSR sort gate)” value read?
Answer: low polyreactivity

Question: For “QVQIVESGGGLVQAGGSLRLSCAASGLTLGRNAMGWYRQAPGKERELVAAITQSGGSTYYADSVKGRFTISRDNAKNTVYLQMNSLKPEDTAVYYCAAEVVRQWHGIGYDYWGHGTQVTVSS”, which “polyreactivity (PSR sort gate)” value is on record?
Answer: low polyreactivity

Question: With “QVQIVESGGGLVQAGGSLRLSCAASGRIFDGNALGWYRQAPGKERELVAAISRIGGTYYADSVKGRFTISRDNAKNTVYLQMNRLKPEDTAVYYCAADPSSVGYHVEYDYWGQGTQVTVSS” as the sequence, how does the “polyreactivity (PSR sort gate)” value read?
Answer: low polyreactivity

Question: For “QVQIVESGGGLVQAGGSLRLSCAASGRIFFQYALGWYRQAPGKERELVAAIRYSGGSTYYADSVKGRFTISRDNAKNTVYLQMNSLKPEDTAVYYCAARYTRRHYDYWGQGTQVTVSS”, which “polyreactivity (PSR sort gate)” value is on record?
Answer: high polyreactivity

Question: For “QVQIVESGGGLVQAGGSLRLSCAASGRIFGAYGMGWYRQAPGKERELVAAISNGGRTSYADSVKGRFTISRDNAKNTVYLQMNSLKPEDTAVYYCAAVYWQWYGAYDYWGQGTQVTVSS”, which “polyreactivity (PSR sort gate)” value is on record?
Answer: high polyreactivity

Question: Which “polyreactivity (PSR sort gate)” value does the source give for “QVQIVESGGGLVQAGGSLRLSCAASGRIFVPYVMGWYRQAPGKERELVASISDSDTSTYYADSVKGRFTISRDNAKNTVYLQMNSLKPEDSAVYYCAAGVLRRATELYYWGQGTQVTVSS” here?
Answer: low polyreactivity

Question: Which “polyreactivity (PSR sort gate)” value does the source give for “QVQIVESGGGLVQAGGSLRLSCAASGRIIGTYAMGWYRQAPGKERELVATISYSSGRTYYADSVKGRFTISRDNAKNTVYLQMNSLKPEVTAVYYCAAVGTGSSLRYDYWGQGTQVTVSS” here?
Answer: high polyreactivity

Question: For “QVQIVESGGGLVQAGGSLRLSCAASGRIIRDYDMGWYRQAPGKERELVAAITFRSGSTYYADSEKGRFTISRDNAKNTVYLLMNSLKPEDTAVYYCADANSILLFDSWGQGTQVTLSS”, which “polyreactivity (PSR sort gate)” value is on record?
Answer: low polyreactivity

Question: For “QVQIVESGGGLVQAGGSLRLSCAASGRILKYYAMGWYRPAPGKEREFVASIRYSGGSTYADSVKGRFTISRDNAKNTVYLQMNSLKPEDTAGYYCNAQLSWTKFAYRGMDYGGQGTQVTVSS”, which “polyreactivity (PSR sort gate)” value is on record?
Answer: high polyreactivity

Question: For “QVQIVESGGGLVQAGGSLRLSCAASGRTFAWYAMGWYRQAPGKERELVAAITWSGGSTYYADSVKGRFTISRDNAKNTVYLQMNSLKPEETAVYYCAARTVVGWYSRYCYWGQGTQVTVSS”, which “polyreactivity (PSR sort gate)” value is on record?
Answer: low polyreactivity

Question: For “QVQIVESGGGLVQAGGSLRLSCAASGRTFFPYAMGWYRQAPGKEREFVAAITKTDDSTYYADSVKGRFTISRDNAKNTVYLQMNSLKPEDTAVYYCAADRSISADYVVSVDYDYWGQGTQVTVSS”, which “polyreactivity (PSR sort gate)” value is on record?
Answer: low polyreactivity

Question: Which “polyreactivity (PSR sort gate)” value does the source give for “QVQIVESGGGLVQAGGSLRLSCAASGRTFKGYAMAFYRQAPGKERELVAGISRGAGRTYYADSVKGRFTISRDNAKNTVYLQMNSLKPEDTAVYYCAAVPSYNSTSPFYYWGQGTQVTVSS” here?
Answer: high polyreactivity

Question: For “QVQIVESGGGLVQAGGSLRLSCAASGRTFNAYAMGWYRPAPGKERELVAAISGNGGSTYYADSVKGRFTISRDNAKNTVYLQMNSLKPEDTAVYYCYKVQRSLLGYNSWGQGTEVTVSS”, which “polyreactivity (PSR sort gate)” value is on record?
Answer: high polyreactivity

Question: With “QVQIVESGGGLVQAGGSLRLSCAASGRTFRGNVMGWSRQAPGKEREFVAAITRSGSNTYYADSVKGRFTISRDNAKNTVYLQMNSLKPEDTAVYYCAKSVLLGYKRHDSWGQGTQVTVSS” as the sequence, how does the “polyreactivity (PSR sort gate)” value read?
Answer: high polyreactivity

Question: For “QVQIVESGGGLVQAGGSLRLSCAASGRTFWRYTMGWYRQAPGKERELVASISTGGGSTYYADSVKGRFTISRDNAKNTVYLQMNSLKPEDTAVYYCNVEYVSVSRVWRGNYWGQGTQVTVSS”, which “polyreactivity (PSR sort gate)” value is on record?
Answer: low polyreactivity

Question: With “QVQIVESGGGLVQAGGSLRLSCAASGSIFKIYEMGWYRLAPGKEREMVASMTCSGGSTYYADSVKGRFTISRDNAKNTVYLQRNSLKPEDTAGYYCAAAVLGSSKSEVDPDRPEYYYWGQGTQVTVSS” as the sequence, how does the “polyreactivity (PSR sort gate)” value read?
Answer: low polyreactivity

Question: For “QVQIVESGGGLVQAGGSLRLSCAASGSIFLRNAMGWYRQAPGKERELVASITWNGASTSYADSVKGRFTISRDNAKNTVYLQMNSLKPEDTAVYYCAAVTVQDSNLNYGYWGQGTQVTVSS”, which “polyreactivity (PSR sort gate)” value is on record?
Answer: low polyreactivity

Question: Which “polyreactivity (PSR sort gate)” value does the source give for “QVQIVESGGGLVQAGGSLRLSCAASGSIFSRYTMGWYRQAPGKERELVARINSSGTSTYYADSVKGRFTISRDNEKNSVYFQMNSLKPEDTAVYYCDRTSRHVRYDYWGQGTQVTVSS” here?
Answer: low polyreactivity

Question: Which “polyreactivity (PSR sort gate)” value does the source give for “QVQIVESGGGLVQAGGSLRLSCAASGSIFSYNVMGWYRQAPGKERELVAAISWNDGSTYYADSVKGRFTISRDNAKNTVYLQMNSLKPEDTAVYYCAAEYGRRWHNELDYWGQGTQVTLSS” here?
Answer: low polyreactivity

Question: With “QVQIVESGGGLVQAGGSLRLSCAASGSNNGYYTMGWYRQAPRKERELVAAINYSGGRTYYADSVKGRFTISRDNAKNTVYFQMNSLKPEDTAVYYCARAYYYGSDIMDYWGQGTQVTVSS” as the sequence, how does the “polyreactivity (PSR sort gate)” value read?
Answer: high polyreactivity

Question: Which “polyreactivity (PSR sort gate)” value does the source give for “QVQIVESGGGLVQAGGSLRLSCAASGSTFLTNTMGWYRQAPGKERELVAAITLRGGRTYYADSVKGRFTISRDNAKNTVYLQMNSLRPEDTAVYYCNARNYYYPSDRDYWGQGTQVTVSS” here?
Answer: low polyreactivity

Question: Which “polyreactivity (PSR sort gate)” value does the source give for “QVQIVESGGGLVQAGGSLRLSCAASGSTFTLNAMGWYRQAPGKERELVADISWSSGRTYYADSVKGRFTISRDNAKNTVYLQMNSLKPEDTAVYYCAARLPFEHVDYWGQGTQVTVSS” here?
Answer: low polyreactivity

Question: For “QVQIVESGGGLVQAGGSLRLSCAASGSTFVENAMGWYRPAPGKERELVAAISSSGDSTFYADSVKGRFTISRDNAKNNVYLQMNSLKPEDTAVYYCAADRRINYDGLDMDYWGQGTQVTVSS”, which “polyreactivity (PSR sort gate)” value is on record?
Answer: low polyreactivity

Question: With “QVQIVESGGGLVQAGGSLRLSCAASGSTFYSYAMGWYRPAPGKERELVAGISYIGGRTYYADSVKGRFTISRDNAKNTVYLQMNSLKAEDTAVYDCAADQYGTTYGYWGHGTQVTVSS” as the sequence, how does the “polyreactivity (PSR sort gate)” value read?
Answer: high polyreactivity

Question: With “QVQIVESGGGLVQAGGSLRLSCAASGSTFYSYAMGWYRQAPGKERELVAAIDWSGDNTNYADSVKGRFTISRDNAKNTVYLQMKSLKPEDTAVYYCAAVYSYYRLYAYPAYYYWGQGTQVTVSS” as the sequence, how does the “polyreactivity (PSR sort gate)” value read?
Answer: low polyreactivity

Question: For “QVQIVESGGGLVQAGGSLRLSCAASGSTLGVNAMGWYRQAPGKERELVAAISKSGGGTYYADSVKGRFTISRDIAKNTVYLQMNRLIPEDTAVYYCNAPVSRKYYSWGQGTQVTVSS”, which “polyreactivity (PSR sort gate)” value is on record?
Answer: high polyreactivity

Question: With “QVQIVESGGGLVQAGGSLRLSCAASGSTLYAYAMGWYRQAPGKERELVAAIRTGGSTYYADSVKGRFTISRDNAKNTVYLQMNSLKPEDTAVYYCADDHGYQYGYWGQATQVTVSS” as the sequence, how does the “polyreactivity (PSR sort gate)” value read?
Answer: low polyreactivity

Question: With “QVQIVESGGGLVQAGGSLRLSCAASGSTSLVNAMGWYRQAPGKESELVAAITRGGNTYYADSVKGRFTISRDNAKNTVYLQMNSLKPEDTAVYYCAADFWRFYYEYDYWGQGTQVTVSS” as the sequence, how does the “polyreactivity (PSR sort gate)” value read?
Answer: low polyreactivity

Question: With “QVQIVESGGGLVQAGGSLRLSCAASGYTFRFNAMGWYRQAPGKEREFVAAIDFGGAGTYYADSVKGRFTISRDNAKNTVYLQMNSLKPEDTAVYYCNARDGVTTEFDYWGQGTQVTVSS” as the sequence, how does the “polyreactivity (PSR sort gate)” value read?
Answer: low polyreactivity

Question: Which “polyreactivity (PSR sort gate)” value does the source give for “QVQIVESGGGLVQAGGSLRLSCAASRRIFEYYTMGWYRQAPGKERELVARISSGGSTYYADTVKGRFTISRDNAKNSVYLQLNSLLPEDTAVYYCAAGRGYWWWYGYDYWGQGTEVTVSS” here?
Answer: low polyreactivity

Question: For “QVQIVESGGGLVQAGGSLRLSCDASGSIFYSNAIGWYRQAPGKERELVASIRGSGVSTYYADSVKGRFTISRDNAKNTVYLQMNSLKPEDTAVYYCAARYVRSYFGFYYWGQGTQVTVSS”, which “polyreactivity (PSR sort gate)” value is on record?
Answer: high polyreactivity

Question: For “QVQIVESGGGLVQAGGSLRLSFAASGSILYINAMGWYRQAPGKERELVAAISWSGDSTNYADSVKGRFTISRDNAKNTVYLQMNSLKPEDTAVYYCNADCDVVGVAHDYWGQGTQVTVSS”, which “polyreactivity (PSR sort gate)” value is on record?
Answer: low polyreactivity

Question: With “QVQIVESGGGLVQAGGSLRLTCAASGRTFYGNAMGWYRQAPGKERDLVADISSRSSSTSYADSVKGRFTISRDNAKYSVYFQMNSLKPEDTAVYYCATRYGYRTWYGYNYWGQGTQVTVSS” as the sequence, how does the “polyreactivity (PSR sort gate)” value read?
Answer: high polyreactivity

Question: With “QVQIVESGGGLVQAGGSLRLTCAASGSIFPDYAMGWYRQAPGKERELVASISWDGGSTYYADSVKGRFTISRDNAKNTVYLQMNSLKPEDTAVYYCATELLVGGGFTVDYWGQGTQVTVSS” as the sequence, how does the “polyreactivity (PSR sort gate)” value read?
Answer: low polyreactivity
